# T1: TagI (Thermocrispum agreste, UniProt A0A3F2YM30 1-311)
# T1 sequence: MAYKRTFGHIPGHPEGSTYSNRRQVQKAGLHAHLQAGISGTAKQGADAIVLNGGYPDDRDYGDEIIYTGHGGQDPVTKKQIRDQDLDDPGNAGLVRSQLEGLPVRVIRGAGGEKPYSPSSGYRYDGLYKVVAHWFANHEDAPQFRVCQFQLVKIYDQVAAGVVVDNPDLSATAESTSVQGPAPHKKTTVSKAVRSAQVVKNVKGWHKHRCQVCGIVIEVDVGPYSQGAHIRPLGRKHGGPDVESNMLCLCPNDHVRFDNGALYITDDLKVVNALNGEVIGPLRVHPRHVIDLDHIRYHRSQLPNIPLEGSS
# B1: 17mer fully methylated duplex (dsDNA)
# DNA 1: CCTAGAGCAGCAATCCC
# DNA 2: GGGATTGCTGCTCTAGG
# modifications: 5mC at position 8 of strand 1 and position 8 of strand 2
# B2: 17mer unmodified duplex (dsDNA)
# DNA 1: CCTAGAGCAGCAATCCC
# DNA 2: GGGATTGCTGCTCTAGG
# Assays:
# [1] = molecular target: TagI, SRA-HNH modification-dependent restriction endonuclease from Thermocrispum agreste (Thermocrispum agreste); assay: SEC-MALS; multi-angle light scattering of TagI alone
# [2] = molecular target: TagI, SRA-HNH modification-dependent restriction endonuclease from Thermocrispum agreste (Thermocrispum agreste); assay: SEC; analytical gel filtration of TagI alone; apparent molecular mass compared with the theoretical mass of the dimer
# [3] = molecular target: T1, TagI; assay: analytical gel filtration (SEC co-migration); 1, 2 or 4 duplexes per TagI dimer; sharp complex peak, 93 kDa, about 1 duplex per dimer; analytical gel filtration; buffer, salt, pH and temperature not given in the material; conditions: protein: recombinant; chain copies: 2; blunt
# [4] = molecular target: T1, TagI; assay: analytical gel filtration (SEC co-migration); 1, 2 or 4 duplexes per TagI dimer; migrated independently; analytical gel filtration; buffer, salt, pH and temperature not given in the material; conditions: protein: recombinant; chain copies: 2; blunt
molecule,measurement,setting,value
"TagI, SRA-HNH modification-dependent restriction endonuclease from Thermocrispum agreste (enzyme)",stoichiometry N,[1],2
same,stoichiometry N,[2],2
B1,binding result,[3],binds
B2,binding result,[4],no binding
